Read-outs that look alike come from different tables or passages of the source. One block for each compound: values may come before it. Peptide text beside a SMILES is read from it.
Columns and labels:
[1] = parameters: species or system human; settings: in vivo
From the text: The aim of the present study was to investigate in healthy volunteers plasma Trp/LNAA profiles and mood after the consumption of different tryptophan containing preparations.
Eighteen healthy students (9 males and 9 females: age between 18-30 years) participated in the study. Exclusion criteria for participation were chronic and current illness, history of psychiatric or medical illness, use of medication or drugs, alcohol consumption (>2 units/day), metabolic-, hormonal- or intestinal diseases and irregular diets or deviant eating habits (assessed by health and life-style questionnaires). Subjects participating in the experiment were in the normal range for the Body-Mass Index (BMI in kg/m^2 between 20-25) and female subjects are matched for contraception. Women participated during their mid-late follicular phase (day 4-10), while women using contraception participated when they actually used the contraception pill. […] All subjects participating in the experiment signed an Informed Consent Form. This study was conducted according to the EC principles of Good Clinical Practice (GCP) adopted by the 52nd WMA General Assembly, Edinburgh, Scotland, October 2000.
Subjects were instructed to fast overnight; only water or tea without sugar was permitted. During […] experimental morning sessions, subjects visited the laboratory to monitor plasma Trp/LNAA concentrations and mood following the intake of a drink containing different Trp or LNAA concentrations. The order of presentation of the various drinks was counterbalanced and the four experimental days were separated by a one-week period. On each experimental morning, a 312 ml drink was provided containing different tryptophan (Trp) or LNAA concentrations (Table 2). All drinks contained 0.10 g sweetener (acesulfame) and were filled up with plain water in order to reach 312 mL. A research assistant blind to the dietary conditions conducted the administration of the different drinks.
Blood samples were collected in duplicate before and 15, 30, 60, 90, 120, 180 and 210 minutes after ingestion in 5 ml vacutainer tubes containing sodium heparine and were then centrifuged at 5000 rpm for 5 min at 4° C. The resulting supernatants were mixed with sulfasalicyl acid (4 mg/100 microliter) and directly stored at −80° C. until analysis. Plasma amino acid analysis was conducted with HPLC, making use of a 2-3 μm Bischof Spherisorb ODS II column as described by van Eijk et al (J. Chromatogr. 1993: 620: 143-148). The plasma Trp/LNAA ratios were calculated by dividing the plasma molar tryptophan concentration by the sum of the plasma molar concentrations of the large neutral amino acids valine, isoleucine, leucine, tyrosine and phenylalanine. Statistical analysis took place by means of repeated measures multivariate and univariate analyses of variance (MANOVA and ANOVA) using the General Linear Model (GLM: SPSS 12.0 for Windows). All statistics were evaluated at a significance level of P=0.05.

[2] = tested on: healthy volunteers; assay: Profile of Mood States (POMS) after drinks with different tryptophan sources (Example 6); format: in vivo, human; settings: for mood changes (POMS total mood scores): after the intake, over the session
Method: Subjects were instructed to fast overnight; only water or tea without sugar was permitted. During five experimental morning sessions, subjects visited the laboratory to monitor plasma Trp/LNAA concentrations and mood following the intake of a drink containing different Trp or LNAA concentrations. The order of presentation of the various drinks was counterbalanced and the four experimental days were separated by a one-week period. On each experimental morning, a 312 ml drink was provided containing different tryptophan (Trp) or LNAA concentrations (Table 2). All drinks contained 0.10 g sweetener (acesulfame) and were filled up with plain water in order to reach 312 mL. A research assistant blind to the dietary conditions conducted the administration of the different drinks.
The POMS comprises five different subscales for mood; ranging from Anger, Depression, Fatigue and Tension that refer to a negative mood state, to Vigor concerning a positive mood.

[3] = biological target: T1, pepsin (Sus scrofa, UniProt P00791); assay: Test for protease resistancy (pepsin pH 4, SDS-PAGE); format: in vitro ADME; settings: pepsin 1% w/w, 2 hours at 37 degrees C
T1 construct: purchased Sigma
T1 sequence (P00791 60-385): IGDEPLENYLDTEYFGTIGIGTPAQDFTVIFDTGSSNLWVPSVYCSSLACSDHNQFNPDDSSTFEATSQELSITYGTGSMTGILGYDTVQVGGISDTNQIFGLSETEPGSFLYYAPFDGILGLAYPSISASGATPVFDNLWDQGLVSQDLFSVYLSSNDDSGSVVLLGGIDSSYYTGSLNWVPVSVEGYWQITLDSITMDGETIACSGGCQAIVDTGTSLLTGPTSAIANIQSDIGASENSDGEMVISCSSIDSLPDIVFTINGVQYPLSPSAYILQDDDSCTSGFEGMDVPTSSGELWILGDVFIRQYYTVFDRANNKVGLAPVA
Method: To test its digestibility in the human stomach, a 5% (w/w) solution of the intact protein was incubated with pepsin (Sigma; 1% w/w pepsin to intact protein) for 2 hours at 37 degrees C. in a Mc Ilvane buffer (0.2 M citric acid plus Na2HPO4) pH 4.0. The degree of protease resistancy is defined as the percentage of the protein that is not affected by the pepsin incubation. “Not affected” meaning that the molecular weight of the protein has not changed as a result of the pepsin incubation; “percentage of the protein” meaning the area under the curve after digestion times 100, divided by the area under the curve prior to digestion; “area under the curve” is the area of the protein having the initial molecular weight as provided by the quantitative analysis method used (see further).
Molecular weights are compared according to SDS-PAGE followed by staining according to the protocol specified hereunder. After staining of the gel, a digital image is prepared using the OptiGo imaging system (Isogen Life Science; www.isogen-life-science.com) followed by the quantitative analysis of selected protein bands using Totallab TL 100, version 2006 software (Nonlinear Dynamics Ltd; www.nonlinear.com) running under Windows XP.
All materials used for SDS-PAGE and staining were purchased from Invitrogen (Carlsbad, Calif., US). […] Staining was performed using Simply Blue Safe Stain (Collodial Coomassie G250).
Together with beta-lactoglobulin, alpha-lactalbumin forms the major protein constituent of whey. Because of its high Trp/LNAA ratio, isolated alpha-lactalbumin fractions as well as alpha-lactalbumin hydrolysates have gained popularity for enhancing plasma tryptophan levels. […] According to the present application, a pepsin-resistant molecule with a high Trp/LNAA ratio is essential to maintain high plasma Trp/LNAA ratios longer term. […] This was illustrated in the following experiment. […] After incubation both solutions were heated for 5 minutes at 80 degrees C. to terminate the reaction and small samples were subjected to SDS-PAGE (see Materials & Methods) to test the integrity of the various pepsin treated molecules.

[4] = earlier studies (Markus et al., 2000; Booij et al., 2006); cited from earlier work
[5] = biological target: T1, pepsin; assay: Lysozyme hydrolysis by pepsin (in vitro digestibility, DH); format: in vitro ADME; settings: pH start 2.8, 2 hours at 37 degrees C
Method: (§1) Both incubations were carried out under pH conditions that are prevalent in the stomach (pepsin) and duodenum (trypsin/chymotrypsin). […] To prevent major pH changes as the result of the ongoing protein hydrolysis, incubation was carried out in a Mc Ilvane buffer (0.2 M citric acid plus Na2HPO4).

[6] = tested on: trypsin/chymotrypsin mixture; assay: Lysozyme hydrolysis by a trypsin/chymotrypsin mixture (in vitro digestibility, DH); format: in vitro ADME, Porcine; settings: pH start 7.2, 2 hours at 37 degrees C
Method: as §1

[7] = biological target: T2, microbial subtilisin (EC 3.4.21.62) (Bacillus licheniformis, UniProt P00780); assay: Susceptibility of lysozyme to subtilisin (Protex 6L) hydrolysis at elevated pH, DH; format: physicochemical
T2 construct: purchased Genencor (Leiden, The Netherlands) Protex 6L
T2 sequence (P00780 106-379): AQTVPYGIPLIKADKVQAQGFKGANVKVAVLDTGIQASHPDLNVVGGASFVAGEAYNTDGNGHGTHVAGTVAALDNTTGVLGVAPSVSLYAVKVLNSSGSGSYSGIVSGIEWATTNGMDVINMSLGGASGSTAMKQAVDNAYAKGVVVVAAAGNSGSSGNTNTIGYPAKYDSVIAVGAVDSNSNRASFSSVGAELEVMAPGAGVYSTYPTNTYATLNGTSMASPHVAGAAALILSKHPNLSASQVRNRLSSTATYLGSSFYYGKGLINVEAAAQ
Method: The Degree of Hydrolysis (DH) as obtained during incubation with the various proteolytic mixtures was monitored using a rapid OPA test (Nielsen, P. M.; Petersen, D.; Dambmann, C. Improved method for determining food protein degree of hydrolysis. Journal of Food Science 2001, 66, 642-646).
The incubation was carried out for 3 hours at 60 degrees C. with a constant adjustment of the pH using 1M NaOH. The incubations yielded slightly turbid solutions without any significant precipitates. After a heating step to inactivate the subtilisin activity, the DH values of the various incubations were measured according to the protocol described in the Materials & Methods section. […] The pH 7.0 incubation yielded a DH of 6.3, the pH 8.0 incubation a DH of 11.2 and the pH 9.0 incubation a DH of 16.4.

[8] = Kinetics of plasma Trp/LNAA ratio after hydrolysed, intact or mixed lysozyme (Example 11); format: in vivo, human; settings: inferred from area-under-the-curve
From the text: Exclusion criteria were: chronic and current illness, at the discretion of the investigator; history of psychiatric disorders; use of selective serotonin reuptake inhibitors (SSRI); use of supplements targeting the central nervous system, such as supplements containing tryptophan, ephedrine, or St John's wort; egg allergy; drug abuse; participation in any other study involving investigational or marketed products concomitantly; intolerance to artificial sweeteners; any (history of) gastrointestinal disease that interferes with gastrointestinal function, at the discretion of the investigator; use of medication targeting the gastro-intestinal tract, such as antacids. Finally, for women, pregnancy or the use of a medically not accepted contraceptive method is an exclusion criterion as well. All subjects participating in the experiment signed an Informed Consent Form.
The study was performed according to a randomized, double-blind, crossover design with a washout period between the intake of the different treatments of three days at least.
The drinks were presented as sterile products in bottles with straws. […] A research assistant blind to the dietary conditions conducted the administration of the different drinks.
The subjects visited the site between 8 and 9 am, having fasted for at least 8 hours. A flexible cannula for blood drawings was inserted in their non-dominant forearm. […]

Compound: ALAC: intact alpha-lactalbumin obtained as Biopure (>90% alpha-lactalbumin) from Davisco Foods; in Example 10 part of whey protein (Bipro)
increase in plasma Trp/LNAA ratio [1]: 67%
mood changes (POMS total mood scores) [2]: no mood changes
quantity of intact protein after incubation with pepsin (SDS-PAGE) [3]: almost completely degraded
protease resistant according to the test (more than 50% of protein with original molecular weight present) ([3]; listed as alpha-lactoglobulin): not “protease resistant”
protease resistant according to the test (more than 50% of protein with original molecular weight present) ([3]; listed as intact alpha-lactalbumine): not protease-resistant
increases in plasma Trp/LNAA as previously found [4]: 50-70%

Compound: N[C@@H](Cc1c[nH]c2ccccc12)C(=O)O [TRP, L-tryptophan]
plasma Trp/LNAA ([1]; both, human, 0 min): 0.11
plasma Trp/LNAA ([1]; both, human, 30 min): 0.12
plasma Trp/LNAA ([1]; both, human, 60 min): 0.29
plasma Trp/LNAA ([1]; both, human, 90 min): 0.31
increase in plasma Trp/LNAA ratio ([1]; both, human, 120 min): 191%
plasma Trp/LNAA ([1]; both, human, 120 min): 0.32
plasma Trp/LNAA ([1]; both, human, 180 min): 0.24
plasma Trp/LNAA ([1]; both, human, 210 min): 0.20
mood (POMS total mood scores) ([2]; 60 min after the intake): Comparable improvements of mood

Compound: beta-lactoglobulin: whey protein constituent of Bipro (Davisco), very low Trp/LNAA ratio (0.04)
protease resistant according to the test (more than 50% of protein with original molecular weight present) [3]: protease resistant
quantity of intact protein after incubation with pepsin (SDS-PAGE) [3]: remains largely intact

Compound: lysozyme: hen egg lysozyme (EC 3.2.1.17), intact protein, obtained as Delvozyme L or Delvozyme G from DSM Food Specialties
DH end (%) [5]: 2.4%
DH end (%) [6]: 1.3%
DH ([7]; pH 7.0, 3 hours at 60 degrees C): 6.3
DH ([7]; pH 8.0, 3 hours at 60 degrees C): 11.2
DH ([7]; pH 9.0, 3 hours at 60 degrees C): 16.4
protease resistant according to the test (more than 50% of protein with original molecular weight present) [3]: protease resistant
quantity of intact protein after incubation with pepsin (SDS-PAGE) [3]: not significantly diminished
digestion and uptake into the blood [8]: completely digested and taken up into the blood

increase in plasma Trp/LNAA ratio [1]: 263%
Compound: N[C@@H](CO)C(=O)N[C@@H](Cc1c[nH]c2ccccc12)C(=O)O [SYN, Ser-Trp] (H-Ser-Trp-OH)
mood changes (POMS total mood scores) [2]: not significant

Reference: US9770493B2 (DSM IP ASSETS B.V., priority 2008, dated 2017)
